Source: publication PMC4847857

What was measured:
[1] = target: ATP-binding cassette A1 (human (endogenous in THP-1)) (UniProt O95477)
[2] = target: ATP-binding cassette G1 (human (endogenous in THP-1)) (UniProt P45844)

UniProt O95477, sequence (O95477 whole entry): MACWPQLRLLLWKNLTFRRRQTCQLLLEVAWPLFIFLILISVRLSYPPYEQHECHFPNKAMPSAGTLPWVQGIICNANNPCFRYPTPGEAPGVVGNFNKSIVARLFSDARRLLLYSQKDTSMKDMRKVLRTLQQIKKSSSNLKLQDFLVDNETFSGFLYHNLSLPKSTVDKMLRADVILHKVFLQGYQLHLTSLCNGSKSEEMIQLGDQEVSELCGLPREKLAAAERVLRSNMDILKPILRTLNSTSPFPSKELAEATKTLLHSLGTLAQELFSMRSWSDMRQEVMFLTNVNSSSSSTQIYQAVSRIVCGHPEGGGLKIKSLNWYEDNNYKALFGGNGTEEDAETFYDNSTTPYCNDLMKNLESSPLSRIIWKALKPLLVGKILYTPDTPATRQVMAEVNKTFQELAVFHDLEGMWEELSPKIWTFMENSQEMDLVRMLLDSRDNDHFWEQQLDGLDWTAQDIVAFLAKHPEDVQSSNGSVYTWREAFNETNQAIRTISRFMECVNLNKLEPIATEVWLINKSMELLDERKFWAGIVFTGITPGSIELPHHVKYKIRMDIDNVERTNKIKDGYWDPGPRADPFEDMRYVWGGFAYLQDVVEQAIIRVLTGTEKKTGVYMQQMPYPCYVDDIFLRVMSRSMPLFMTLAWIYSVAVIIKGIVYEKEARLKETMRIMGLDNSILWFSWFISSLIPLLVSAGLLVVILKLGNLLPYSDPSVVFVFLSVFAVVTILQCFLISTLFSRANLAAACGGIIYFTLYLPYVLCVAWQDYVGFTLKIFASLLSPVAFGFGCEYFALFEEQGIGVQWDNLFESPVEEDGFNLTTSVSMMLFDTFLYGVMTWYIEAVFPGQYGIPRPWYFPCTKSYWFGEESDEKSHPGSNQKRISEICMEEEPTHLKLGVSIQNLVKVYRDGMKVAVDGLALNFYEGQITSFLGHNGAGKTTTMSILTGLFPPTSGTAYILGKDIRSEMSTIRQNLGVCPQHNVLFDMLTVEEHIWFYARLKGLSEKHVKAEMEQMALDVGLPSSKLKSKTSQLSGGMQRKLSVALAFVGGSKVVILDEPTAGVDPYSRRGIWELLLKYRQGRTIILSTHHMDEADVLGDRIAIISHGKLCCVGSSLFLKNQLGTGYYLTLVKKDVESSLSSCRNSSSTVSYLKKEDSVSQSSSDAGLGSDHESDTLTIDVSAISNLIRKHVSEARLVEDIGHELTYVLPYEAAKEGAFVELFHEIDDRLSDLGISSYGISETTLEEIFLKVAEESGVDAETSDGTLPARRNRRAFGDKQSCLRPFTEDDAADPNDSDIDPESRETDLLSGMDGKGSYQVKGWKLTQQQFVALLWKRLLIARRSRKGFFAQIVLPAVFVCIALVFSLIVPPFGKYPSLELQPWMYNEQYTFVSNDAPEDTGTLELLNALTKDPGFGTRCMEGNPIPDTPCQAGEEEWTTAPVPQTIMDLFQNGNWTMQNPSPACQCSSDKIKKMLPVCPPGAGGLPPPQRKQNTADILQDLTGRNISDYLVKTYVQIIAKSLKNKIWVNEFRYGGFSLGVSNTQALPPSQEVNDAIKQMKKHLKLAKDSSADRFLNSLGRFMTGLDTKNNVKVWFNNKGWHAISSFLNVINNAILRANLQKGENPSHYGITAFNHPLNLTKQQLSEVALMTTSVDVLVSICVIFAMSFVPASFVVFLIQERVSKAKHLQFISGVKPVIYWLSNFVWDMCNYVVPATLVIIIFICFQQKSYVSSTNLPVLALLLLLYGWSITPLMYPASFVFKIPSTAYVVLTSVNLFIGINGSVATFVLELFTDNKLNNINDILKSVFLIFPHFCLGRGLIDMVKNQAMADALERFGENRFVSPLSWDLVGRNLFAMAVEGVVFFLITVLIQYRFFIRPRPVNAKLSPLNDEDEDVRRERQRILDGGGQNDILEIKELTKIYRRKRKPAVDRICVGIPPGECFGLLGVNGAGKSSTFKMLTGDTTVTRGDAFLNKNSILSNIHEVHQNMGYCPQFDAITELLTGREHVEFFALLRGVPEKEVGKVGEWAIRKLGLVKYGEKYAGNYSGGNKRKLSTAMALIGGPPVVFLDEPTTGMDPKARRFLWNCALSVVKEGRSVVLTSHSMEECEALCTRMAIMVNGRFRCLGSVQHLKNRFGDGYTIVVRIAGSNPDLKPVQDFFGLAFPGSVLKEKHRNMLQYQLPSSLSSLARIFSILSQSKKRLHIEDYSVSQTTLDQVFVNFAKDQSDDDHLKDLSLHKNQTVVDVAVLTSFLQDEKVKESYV

Substance: human apoA-1 from human plasma (from UniProt P02647 19-267) (ligand)
- cholesterol efflux from [H^3]-cholesterol-loaded THP-1 macrophages to apoA-I (10 μg/ml) after heat-killed L. acidophilus K301; no effect in the absence of apoA-I [1]: 2.3 fold
- cholesterol efflux from [H^3]-cholesterol-loaded THP-1 macrophages to apoA-I (10 μg/ml) after heat-killed L. acidophilus K301; no effect in the absence of apoA-I [2]: 2.3 fold
